Laboratory results reported in patent US10227388B2, “Peptides and combination of peptides for use in immunotherapy against non-small cell lung cancer and other cancers” (immatics biotechnologies GmbH, priority 2015, dated 2019).

Target: HLA-A*02:01 (Homo sapiens, UniProt P04439, D140Y/D185E/D98H/E176V/E277Q/G131W/G231S/I119V/I121R/I166T/I218V/L300P/L318F/N151K/N90K/P208A/P217A/Q86G/Q94H/R138H/R169H/T345S)
Experiment: MHC binding assay (UV-ligand exchange, ELISA, peptide exchange yield)
Conditions: binding of HLA-class I restricted peptides to HLA-A*02:01
Description: Candidate peptides for T cell based therapies according to the present invention were further tested for their MHC binding capacity (affinity). The individual peptide-MHC complexes were produced by UV-ligand exchange, where a UV-sensitive peptide is cleaved upon UV-irradiation, and exchanged with the peptide of interest as analyzed. Only peptide candidates that can effectively bind and stabilize the peptide-receptive MHC molecules prevent dissociation of the MHC complexes. To determine the yield of the exchange reaction, an ELISA was performed based on the detection of the light chain ([…]) of stabilized MHC complexes. The assay was performed as generally described in Rodenko et al. (Rodenko et al., 2006).
96 well MAXISorp plates (NUNC) were coated over night with 2-ug/ml streptavidin in PBS at room temperature, washed 4× and blocked for 1 h at 37° C. in 2% BSA containing blocking buffer. […] Peptide-MHC monomers of the UV-exchange reaction were diluted 100 fold in blocking buffer. Samples were incubated for 1 h at 37° C., washed four times, incubated with 2-ug/ml HRP conjugated anti-β2m for 1 h at 37° C., washed again and detected with TMB solution that is stopped with […]. Absorption was measured at 450 nm. Candidate peptides that show a high exchange yield (preferably higher than 50%, most preferred higher than 75%) are generally preferred for a generation and production of antibodies or fragments thereof, and/or T cell receptors or fragments thereof, as they show sufficient avidity to the MHC molecules and prevent dissociation of the MHC complexes.

Row | Peptide exchange (MHC class I binding score, peptide exchange yield) | Substance
1 | ″+++″ (≥50% = +++) | 248 (FLFPNQYVDV; listed as Homo sapiens) [compound 248]
2 | ″+++″ (≥50% = +++) | 54 (SLLEQGKEPWMV; listed as Homo sapiens) [compound 54]
3 | ″++″ (≥20% = ++) | 432 (TLIEESAKV; listed as Homo sapiens) [compound 432]
4 | ″++″ (≥20% = ++) | 220 (LLQKFVPEI; listed as Homo sapiens) [compound 220]
5 | ″+++″ (≥50% = +++) | 433 (AMLNEPWAV; listed as Homo sapiens) [compound 433]
6 | ″+++″ (≥50% = +++) | 436 (HLAEVSAEV; listed as Homo sapiens) [compound 436]
7 | ″++″ (≥20% = ++) | 204 (KIAENVEEV; listed as Homo sapiens) [compound 204]
8 | ″++″ (≥20% = ++) | 253 (GLDAATATV; listed as Homo sapiens) [compound 253]
9 | ″+++″ (≥50% = +++) | 243 (LLLNELPSV; listed as Homo sapiens) [compound 243]
10 | ″++″ (≥20% = ++) | 278 (QLLDVVLTI; listed as Homo sapiens) [compound 278]
11 | ″+++″ (≥50% = +++) | 35 (KINDTIYEV; listed as Homo sapiens) [compound 35]
12 | ″++″ (≥20% = ++) | 274 (SLLFSLFEA; listed as Homo sapiens) [compound 274]
13 | ″+++″ (≥50% = +++) | 208 (KISPVTFSV; listed as Homo sapiens) [compound 208]
14 | ″+++″ (≥50% = +++) | 477 (ALLPASGQIAL; listed as Homo sapiens) [compound 477]
15 | ″+++″ (≥50% = +++) | 558 (GLLENIPRV; listed as Homo sapiens) [compound 558]
16 | ″++″ (≥20% = ++) | 455 (SLLKEPQKVQL; listed as Homo sapiens) [compound 455]
17 | ″+++″ (≥50% = +++) | 42 (VLLQKIVSA; listed as Homo sapiens) [compound 42]
18 | ″+++″ (≥50% = +++) | 530 (VMYADIGGMDI; listed as Homo sapiens) [compound 530]
19 | ″+++″ (≥50% = +++) | 98 (LIIDQADIYL; listed as Homo sapiens) [compound 98]
20 | ″+++″ (≥50% = +++) | 331 (KVDTVWVNV; listed as Homo sapiens) [compound 331]
21 | ″++″ (≥20% = ++) | 405 (ALYDVFLEV; listed as Homo sapiens) [compound 405]

Row | Peptide exchange (MHC class I binding score, peptide exchange yield) | Substance
22 | ″+++″ (≥50% = +++) | 250 (ALSEEGLLVYL; listed as Homo sapiens) [compound 250]
23 | ″+++″ (≥50% = +++) | 454 (KLPPPPPQA; listed as Homo sapiens) [compound 454]
24 | ″+++″ (≥50% = +++) | 30 (LILDWVPYI; listed as Homo sapiens) [compound 30]
25 | ″+++″ (≥50% = +++) | 244 (SLFGGTEITI; listed as Homo sapiens) [compound 244]
26 | ″+++″ (≥50% = +++) | 40 (TLLVKVFSV; listed as Homo sapiens) [compound 40]
27 | ″++″ (≥20% = ++) | 570 (ALANQIPTV; listed as Homo sapiens) [compound 570]
28 | ″+++″ (≥50% = +++) | 582 (TLCDVILMV; listed as Homo sapiens) [compound 582]
29 | ″++″ (≥20% = ++) | 131 (FVPPVTVFPSL; listed as Homo sapiens) [compound 131]
30 | ″++++″ (≥75% = ++++) | 303 (AILPQLFMV; listed as Homo sapiens) [compound 303]
31 | ″++++″ (≥75% = ++++) | 305 (SIANFSEFYV; listed as Homo sapiens) [compound 305]
32 | ″+++″ (≥50% = +++) | 562 (YLEELPEKLKL; listed as Homo sapiens) [compound 562]
33 | ″+++″ (≥50% = +++) | 573 (ILVANAIVGV; listed as Homo sapiens) [compound 573]
34 | ″++++″ (≥75% = ++++) | 109 (IILSILEQA; listed as Homo sapiens) [compound 109]
35 | ″++″ (≥20% = ++) | 63 (YLLPSGGSVTL; listed as Homo sapiens) [compound 63]
36 | ″+++″ (≥50% = +++) | 616 (VLIDEVESL; listed as Homo sapiens) [compound 616]
37 | ″+++″ (≥50% = +++) | 599 (YLLNDASLISV; listed as Homo sapiens) [compound 599]
38 | ″+++″ (≥50% = +++) | 345 (VIWKALIHL; listed as Homo sapiens) [compound 345]
39 | ″+++″ (≥50% = +++) | 130 (FLWNGEDSALL; listed as Homo sapiens) [compound 130]
40 | ″+++″ (≥50% = +++) | 356 (KLLGKLPEL; listed as Homo sapiens) [compound 356]
41 | ″++++″ (≥75% = ++++) | 51 (LLPDLEFYV; listed as Homo sapiens) [compound 51]
42 | ″++″ (≥20% = ++) | 363 (KVLDVSDLESV; listed as Homo sapiens) [compound 363]

Row | Peptide exchange (MHC class I binding score, peptide exchange yield) | Substance
43 | ″+++″ (≥50% = +++) | 307 (ALPVSLPQI; listed as Homo sapiens) [compound 307]
44 | ″+++″ (≥50% = +++) | 544 (LLWDVPAPSL; listed as Homo sapiens) [compound 544]
45 | ″+++″ (≥50% = +++) | 614 (LLLPDQPPYHL; listed as Homo sapiens) [compound 614]
46 | ″+++″ (≥50% = +++) | 557 (KLYDDMIRL; listed as Homo sapiens) [compound 557]
47 | ″++″ (≥20% = ++) | 212 (ALWDQDNLSV; listed as Homo sapiens) [compound 212]
48 | ″+++″ (≥50% = +++) | 547 (TLDITPHTV; listed as Homo sapiens) [compound 547]
49 | ″+++″ (≥50% = +++) | 106 (LLYDAVHIVSV; listed as Homo sapiens) [compound 106]
50 | ″+++″ (≥50% = +++) | 366 (RLLDMGETDLML; listed as Homo sapiens) [compound 366]
51 | ″++++″ (≥75% = ++++) | 553 (SLLNQDLHWSL; listed as Homo sapiens) [compound 553]
52 | ″+++″ (≥50% = +++) | 264 (SLQEQLHSV; listed as Homo sapiens) [compound 264]
53 | ″++″ (≥20% = ++) | 431 (SLVNVVPKL; listed as Homo sapiens) [compound 431]
54 | ″++″ (≥20% = ++) | 64 (YAAPGGLIGV; listed as Homo sapiens) [compound 64]
55 | ″++++″ (≥75% = ++++) | 89 (YILPTETIYV; listed as Homo sapiens) [compound 89]
56 | ″++″ (≥20% = ++) | 447 (QLVPALAKV; listed as Homo sapiens) [compound 447]
57 | ″++″ (≥20% = ++) | 412 (YLDDLNEGVYI; listed as Homo sapiens) [compound 412]
58 | ″+++″ (≥50% = +++) | 313 (VLFDDELLMV; listed as Homo sapiens) [compound 313]
59 | ″++″ (≥20% = ++) | 133 (KVLSNIHTV; listed as Homo sapiens) [compound 133]
60 | ″+++″ (≥50% = +++) | 618 (VLFDSESIGIYV; listed as Homo sapiens) [compound 618]
61 | ″++″ (≥20% = ++) | 242 (AIAYILQGV; listed as Homo sapiens) [compound 242]
